The source of these data is the supplement of paper PMC12636428.

For this data set, the system named is Saccharomyces cerevisiae. In words: transcriptional activation domain activity (GFP:mCherry ratio, weighted mean of sorted bins, harmonized to initial dataset scale) (arbitrary fluorescence ratio units); higher = stronger transcriptional activation. The following applies: beta-estradiol 1 µM; induction time 4 h. As to the method: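 53-aa protein tiles (fungal proteins plus yeast TF control tiles) fused C-terminally to a DBD-estrogen-binding domain-mCherry synthetic TF, integrated in S. cerevisiae (URA3 locus) with a GFP reporter. Cells were induced with 1 uM beta-estradiol for 4 h at 30 C, FACS-sorted into 8 bins by GFP:mCherry ratio and barcodes sequenced. Activity is the read-weighted mean bin fluorescence (GFP:mCherry), averaged over barcodes (median 12); tiles under 50 reads were discarded. New active-learning values were harmonized by linear fit onto the scale of the initial (Hummel et al.) dataset. The assay saturates at low and high signal.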

“DADGNPTGDGEPPKKRRRRQALSCTECKRRKIKCDRNHPCSPCARRGDGQKCQ”: the “transcriptional activation domain activity” value turned out to be 13000.

In the case of “DADMIVRLALKARLRWLLPKLTWLRIYFDGLYSNGDVLRVLILPKLLHLLIMC”, the “transcriptional activation domain activity” value was found to be 66000.

As to “DADSAQVAGECVVCQDEEANVVIVECGYVSLIIHLTLHRFIVLASLVISHYAQ”, the “transcriptional activation domain activity” value stood at 63900.

For the sequence “DAESDNEEGAAGAADKKKKKKKKGASTAATSTPAEDEAAAAKGKKKPAAPLAA”, the “transcriptional activation domain activity” value was determined as 53700.

For “DAEYMCQYHGSLIGKHFKSLAQVMPFVIYGLVHEDVLHAWNIIGTLLVLLWHT”, the “transcriptional activation domain activity” value stood at 33500.

For “DAFADGDGDATVTEGETSEKPKKARKKRAKKDTGEDDAEAKPKKKAKRKAKAA”, the “transcriptional activation domain activity” value is 14500.

As for “DAGSGGGEVRRAGGSGILKESGTFGDCRCLSRYASAASLRVHVLLCWENALSA”, the “transcriptional activation domain activity” value was 40400.

Regarding “DAKSGTSGGLFGSAAPASSTAPNSSGAATAGASSTTTTAPAGGLFGAKPAAAS”, the “transcriptional activation domain activity” value was below 6570.

With “DALGLRRPSLYYKALVAGQCIFFMALCYTYRMIPYLDQKKIKTLKKVFFRIII”, the “transcriptional activation domain activity” value came to 68800.

On to “DANASSSSTSSTQANNYIDFHWNNIKPELRDLICQSYKDFLINELGPDQIDLP”, for which the “transcriptional activation domain activity” value amounted to 51100.

For “DANDGRRTLLVVLGDHGMTAAGNHGGASAGETSAALVLASPLFSTVASAPARR”, the “transcriptional activation domain activity” value was below 6570.

Regarding “DAPAQPEPADDGEEAEEVDEPKGKKGKGGGKKGGGKGKGGKGKEKKADKAAAE”, the “transcriptional activation domain activity” value was determined as 29400.

Take “DAPEKEPEAEAAKPKGRGGRPKKVVPPAAAAPAPKEKEEPKPKAAAGRKRKAP”: the “transcriptional activation domain activity” value came to 32100.

Consider “DAPPQKGDRKAEVQDGENGDEVGQDPKGKDKGGRGRGRGGRGRGGAARGGATA”, for which the “transcriptional activation domain activity” value was 36600.

Take “DARRLLSCVRMGFAFYASGCMSTSLILFFSFCLLLPPILTGYQILWLLCIILP”: the “transcriptional activation domain activity” value is 68400.

“DATPAAPANGNDGFHEVQHRGRGRGGFQGEGRGGGGYRGRGGRGGEGRGRGRG”: the “transcriptional activation domain activity” value was found to be 25800.

As for “DAYLLWGPGFIPTVCHIHDFPLLLPVAIFLVYINLSSCHLDPLISFLFLPLFG”, the “transcriptional activation domain activity” value was 66500.

Turning to “DCDIAQQQRFGAMFDDLLKSRETYFLRCSLSTWEIEHDVWWPFYLRSLEWCYF”, the “transcriptional activation domain activity” value came out at 50000.

With “DCDLTCDTPCTASTSATSGHKFVQDHQSSNNDDVFHKYCKFCEESTDNQPCSK”, the “transcriptional activation domain activity” value came out at 58300.

“DCSSILFSPLTTNTNNEFEGESDDFVHSPYLNSEADFSQILSSAPPVHHDPNE”: the “transcriptional activation domain activity” value amounted to 72800.

Consider “DDAAADLQEAQAGASKKNRKRNRKKNAQDGPAEEATPSKGARQGKKGKGWRET”, for which the “transcriptional activation domain activity” value was 12000.

On to “DDADGKARSRRKDYSDDERGDTRRSRRDEHRSSKEHRSRTVKEGENDRRKAHR”, for which the “transcriptional activation domain activity” value is below 6570.

In the case of “DDAVVESFFSSSTDSTPMFEYENLEDNSKEWTSLFDNDIPVTTDDVSLADKAI”, the “transcriptional activation domain activity” value was determined as 114000.

Turning to “DDDDDDVETHSIVHSDLLNDMDSASQRASHNASGFPNFLDTSCSSSFDDHFIF”, the “transcriptional activation domain activity” value stood at 69100.

For the sequence “DDDIAMFDSLATTQPIDIAASNQQNGEIAQLWDFNVDQFNMTPSNSSGSATIS”, the “transcriptional activation domain activity” value came out at 91100.

In the case of “DDDKKETGAFTHQWILLAKSRASHILLCITYFYASVLAVVSVGSVNWRNVAVK”, the “transcriptional activation domain activity” value was found to be 63000.

In the case of “DDEADGKRRRVQRACDSCRKKKCDVRARVYLCGCSKTPRSASQLLRRARGAHG”, the “transcriptional activation domain activity” value was 42500.

Turning to “DDEDEEQEEEEEDVDPEVRRKEELRARMAKMSGGMGMAGMFGMMPMPGAGAPP”, the “transcriptional activation domain activity” value amounted to 41500.

With “DDEEENKSAPAKKSRAKKTVKKEEDDDDNNAEEAKPAPAKKSRAKKAVKKEED”, the “transcriptional activation domain activity” value came to 57900.

For “DDEGSTRDRKSHKRRSRDKDDSDEEEDRKRRKRRKERERSKDKEERRSVLTGK”, the “transcriptional activation domain activity” value amounted to 28900.

Turning to “DDEHEDRHREGRGSRGDRTRSASADSKHRSSRRDKEKHRSSRSHRDRSKEQRR”, the “transcriptional activation domain activity” value is 37400.

For the sequence “DDENEGSDTEAEAPAEKPKRGRKKAAPKEGADGEEEAPAAKKAAPRGRGKKAA”, the “transcriptional activation domain activity” value is 6980.

For “DDERERKRAKGDKDEECHKEPKRSARDKQEESSTTRNSRQSKKPKTAAQPEAK”, the “transcriptional activation domain activity” value was 7230.

For the sequence “DDETADGERQSKREKADDDDDGEEMEIDEEEESAANRNTAVVPPAVQKPSARL”, the “transcriptional activation domain activity” value is 19200.

Regarding “DDGESKEKRSRREKSAASEDESRKRSKSRSKSKSKTPSGNDESSNEDTSAGAD”, the “transcriptional activation domain activity” value is 18600.

Take “DDHRSRRYRDRGRDRDQDEDAEDSHRDRRRRRRSPDEGASRRHQRESHADGDG”: the “transcriptional activation domain activity” value is 35700.

Take “DDKPAEKKEAAAAPKKEEAKKEEAKPAEKKEEPKKEAATAVPKATEKKPATAA”: the “transcriptional activation domain activity” value is 25900.

Take “DDLLVCVAQVVDICYSVFFWFPGIQFQPRPPPLPPIINLWASNILMYTILWIS”: the “transcriptional activation domain activity” value stood at 60700.

With “DDLQQLLEDLGNIDHSDEKLWKEITDQAMWLGNTMDPTAAAGSEIDFTDYLGP”, the “transcriptional activation domain activity” value worked out at 144000.

For “DDNAGDGSLSSVVKVWLEGLTPSGRVEIFGRRNPPPVVRFLLLLVVSRRIGSL”, the “transcriptional activation domain activity” value came out at 58600.

For “DDPDVEESDDEPVELWVARGEDRCDACKQRNIRVCEPQWGAPRSSACKTCARK”, the “transcriptional activation domain activity” value was determined as 31700.

“DDPGATPHDPNDPKRPRACEACRGLKVKCEPDPSNPDGPCKRCAKAGRNCVVT”: the “transcriptional activation domain activity” value amounted to 16300.

Regarding “DDSAASHAESKEARDGANEADTSSTGGEADSALKESNTKAERRQDKKEEEASG”, the “transcriptional activation domain activity” value was found to be 34100.

For the sequence “DDSRERRRSSRKDREKDRKERKRHRHRSDDKSEDDDDRRHRKDRKRSRPSSAA”, the “transcriptional activation domain activity” value is 22100.

With “DDTGEEEQPPPASNSSAGVATSTTVVPQQLPARYRLRAFISHKGPSVHSGHYV”, the “transcriptional activation domain activity” value is 29800.

For “DEDAEGEDDPESAEPAKKRGRPPGSGKKRKPAAEKPKPQPGRGRGRPKKSEAA”, the “transcriptional activation domain activity” value was found to be 18000.

Regarding “DEDATNENMSGPAMDVDEARNFINARLDLLKRTLHPNPIVVTAQLLKAVWAAY”, the “transcriptional activation domain activity” value came to 36200.

Regarding “DEDDDDDDNDDADADDEPARRPKKSKSSQKSRSKKPAAKRAKVNGTTPAAAHS”, the “transcriptional activation domain activity” value came to 20000.

“DEDPAKKGKKKASEPAATKVKAARGRKSKAAATEGSEAGPSKPPAKGRGKKAA”: the “transcriptional activation domain activity” value came out at 15800.

For the sequence “DEDRRKRRRSRSRSPDREEESSRRRRDRSRSRSKDADRKKRKRDKSEERKARK”, the “transcriptional activation domain activity” value was 30900.

As to “DEEDIWNYLPSSSSQQEDSSRALKKNTNSEKANIQAKNDETYLFLQDQDESAD”, the “transcriptional activation domain activity” value was found to be 46700.

For the sequence “DEEEAPEEGARGRRRKGRGKGKGKQGGGGEEEGGDGEEVEGEGEAEGEQENAG”, the “transcriptional activation domain activity” value is 24000.

As for “DEEGRKRGGEREKGQHAGDERRRRRRRGEREGRERQKEGRRGPGRQSKDGKEG”, the “transcriptional activation domain activity” value turned out to be 49500.

Turning to “DEEGRRALPRRCVLVMGSEREGVPGPVLAECDGCVEVRQVGVTRSLNVQTAAA”, the “transcriptional activation domain activity” value was 28700.

For the sequence “DEEQDRSHRHRRSRSASPRRHKSGNEARERDRHGDDHSRRHRRRRSHERSHRH”, the “transcriptional activation domain activity” value turned out to be 48700.

Regarding “DEGESAAPADSAAQAQHLDATKKGHYKLSSFISHKGPSVHCGHYVSHIKKGDQ”, the “transcriptional activation domain activity” value worked out at 51800.

As for “DELSRQKLGPDLHTILANLPGDLFGIYSRFLRPIHPRDFIHVARFLRWLLYAW”, the “transcriptional activation domain activity” value was found to be 69500.

As to “DEPFKCTQSRCSIILPRDLMAVHFSYRRRTLKLIRSCPITKCSFRIRLFRPQS”, the “transcriptional activation domain activity” value was determined as 69700.

Regarding “DEPTTDEKKVEETAVAVANLSVEGKKDEKKEEATLSDDKKTEAATEAVAAAPV”, the “transcriptional activation domain activity” value came out at 10100.

On to “DERRLVWPSRLTFMKVVFLLNRYVPFAGSFGMMYVLTLVNPVTQSDFCKHGFL”, for which the “transcriptional activation domain activity” value worked out at 54900.

With “DESINGSEMPDFSLDLVSNDRQTGLEALDYDIHNYFPQHSERLTAEKIDTSAC”, the “transcriptional activation domain activity” value came out at 76700.

As for “DESPDADATKREKKKKKQKKRKVLQKEEEEEAEAARDKRERKKRKKSKSDIRR”, the “transcriptional activation domain activity” value was 39200.

As to “DETAPATEEASKEGEAAEEAAPAAEAEETKTEEAPNKEEGTKRRSASRKRVSI”, the “transcriptional activation domain activity” value came to 37200.

As for “DETLAYIARRHNYTGKSLILPPTEITLRFFAHVARVMELSMADLLIALVYVRR”, the “transcriptional activation domain activity” value amounted to 50100.

For the sequence “DETNIHFDSMWCNDEYMKLKDIVDISTPFLPNNSQIFSLQESEYPNPSASTRG”, the “transcriptional activation domain activity” value is 136000.

On to “DEVLKPLWLGIRLHRGKGLAAFLKAIGFIIPLMDPNTLTVILIREFQTSDEEM”, for which the “transcriptional activation domain activity” value was determined as 15100.

With “DEVMKIMPVQKQTRAGQRTRFKAFVVIGDSEGHVGLGVKCAKEVATAIRGAII”, the “transcriptional activation domain activity” value was 59300.

As to “DEVTDWFGASEDIGLEFVEPWTELIEQRYMQCGDGDNNNFENLYNLFVNSNNI”, the “transcriptional activation domain activity” value is 137000.

“DEYGNAKIRDLRLKPVQTISDSQTVDEAVELMRDKGYDQVPVTSSTGRRLVGM”: the “transcriptional activation domain activity” value was 73300.

“DFDVNEFDPQVLFSTGTRTVEFMDDQNQPSSASAFLSTARPNHYSTHTPTTDV”: the “transcriptional activation domain activity” value came to 75300.

“DFFLGERDLLQETVSEEWLQFFDDGDLDQILDFLIFFKNPESLHPPSSLVDFI”: the “transcriptional activation domain activity” value was 158000.
